Measured values: patent US10722576 (dated 2020)
Read-outs that look alike come from different tables or passages of the source.

T1: human TfR-2 (human, UniProt Q9UP52)
T1 chain: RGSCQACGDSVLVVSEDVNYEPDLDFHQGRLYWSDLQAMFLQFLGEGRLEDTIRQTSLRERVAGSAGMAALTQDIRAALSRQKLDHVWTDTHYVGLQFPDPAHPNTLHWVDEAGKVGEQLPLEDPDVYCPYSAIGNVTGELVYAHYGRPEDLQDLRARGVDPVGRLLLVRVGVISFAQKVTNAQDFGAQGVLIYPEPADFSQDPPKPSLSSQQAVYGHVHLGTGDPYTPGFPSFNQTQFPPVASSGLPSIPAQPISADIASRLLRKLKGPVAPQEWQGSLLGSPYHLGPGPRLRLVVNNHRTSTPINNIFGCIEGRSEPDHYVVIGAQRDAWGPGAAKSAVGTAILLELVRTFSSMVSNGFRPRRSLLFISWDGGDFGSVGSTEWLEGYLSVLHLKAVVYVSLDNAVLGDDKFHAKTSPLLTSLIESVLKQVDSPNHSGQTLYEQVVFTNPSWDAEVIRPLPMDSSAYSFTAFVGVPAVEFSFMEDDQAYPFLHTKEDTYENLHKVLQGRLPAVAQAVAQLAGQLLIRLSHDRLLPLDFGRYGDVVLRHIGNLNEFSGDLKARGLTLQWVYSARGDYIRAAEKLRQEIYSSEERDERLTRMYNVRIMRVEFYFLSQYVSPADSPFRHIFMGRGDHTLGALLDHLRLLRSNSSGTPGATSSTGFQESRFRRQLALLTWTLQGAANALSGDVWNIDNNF


How the values were obtained:
Assay in all cases: ELISA
[1] = target: T1, human TfR-2
[2] = target: T2, human TfR-1 (human, UniProt P02786)
T2 sequence (P02786 89-760): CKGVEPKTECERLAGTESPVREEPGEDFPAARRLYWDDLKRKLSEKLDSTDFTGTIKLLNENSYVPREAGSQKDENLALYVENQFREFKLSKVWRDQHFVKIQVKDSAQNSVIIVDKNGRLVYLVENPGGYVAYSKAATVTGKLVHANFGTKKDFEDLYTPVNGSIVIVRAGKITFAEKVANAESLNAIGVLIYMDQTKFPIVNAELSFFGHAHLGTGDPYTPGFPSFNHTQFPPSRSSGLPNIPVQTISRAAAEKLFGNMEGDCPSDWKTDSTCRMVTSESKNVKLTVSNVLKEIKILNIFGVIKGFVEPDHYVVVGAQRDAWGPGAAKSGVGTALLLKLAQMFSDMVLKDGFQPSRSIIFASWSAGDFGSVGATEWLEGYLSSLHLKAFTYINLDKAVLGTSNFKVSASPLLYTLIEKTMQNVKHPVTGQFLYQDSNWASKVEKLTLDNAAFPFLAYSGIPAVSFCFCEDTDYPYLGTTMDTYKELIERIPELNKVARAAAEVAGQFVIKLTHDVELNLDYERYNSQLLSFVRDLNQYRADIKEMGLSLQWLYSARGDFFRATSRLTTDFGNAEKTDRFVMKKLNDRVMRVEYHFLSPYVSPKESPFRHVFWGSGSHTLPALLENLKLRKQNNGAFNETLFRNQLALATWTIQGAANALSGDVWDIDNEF

[3] = target: T3, mouse TfR-1 (mouse, UniProt Q62351)
T3 sequence (Q62351 89-763): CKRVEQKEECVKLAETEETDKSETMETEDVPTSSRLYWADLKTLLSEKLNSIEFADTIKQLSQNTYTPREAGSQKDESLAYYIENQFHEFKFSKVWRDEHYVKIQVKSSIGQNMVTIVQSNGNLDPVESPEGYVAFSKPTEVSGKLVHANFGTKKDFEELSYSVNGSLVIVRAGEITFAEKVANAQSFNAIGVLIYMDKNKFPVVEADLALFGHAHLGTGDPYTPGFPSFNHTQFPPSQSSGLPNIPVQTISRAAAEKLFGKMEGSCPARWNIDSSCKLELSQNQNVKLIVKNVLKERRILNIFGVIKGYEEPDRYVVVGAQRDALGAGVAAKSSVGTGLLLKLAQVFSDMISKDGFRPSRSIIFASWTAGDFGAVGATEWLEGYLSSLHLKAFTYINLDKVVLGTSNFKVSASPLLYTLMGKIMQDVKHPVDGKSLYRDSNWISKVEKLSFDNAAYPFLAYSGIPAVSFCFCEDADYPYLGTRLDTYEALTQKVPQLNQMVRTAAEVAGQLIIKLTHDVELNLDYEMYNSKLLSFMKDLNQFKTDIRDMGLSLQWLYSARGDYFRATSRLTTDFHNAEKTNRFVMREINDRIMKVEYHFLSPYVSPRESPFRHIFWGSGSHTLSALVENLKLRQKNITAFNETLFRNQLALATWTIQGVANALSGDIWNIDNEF

[4] = target: T2, human TfR-1; remark: listed apart in the source
[5] = target: T2, human TfR-1; remark: listed apart in the source
[6] = target: T3, mouse TfR-1; remark: listed apart in the source

Row | binding result [1] | EC50 [2] [nM] | EC50 [3] [nM] | EC50 [4] [nM] | EC50 [5] [nM] | EC50 [6] [nM] | Binder
1 | no binding | ~100 |  |  |  |  | H01-Fc (designed binder) ARVDQTPQTITKETGESLTINCVLRDSNCALSSTYWYRKKSGSTKEESISKGGRYVETVNSGSKSFSLRINDLTVEDSGTYRCNVWHDLVWSVCTTDVYGGGTVVTVNAASGA
2 | no binding | ~100 | 34.3 | 26.3 | 9 | 34.2 | F02-hFc (designed binder) ARVDQTPQTITKETGESLTINCVLRDNDCTLSSTHWYRKKSGSTNEERISKGGRYVETVNSGSKSFSLRINDLTVEDSGTYRCNVYAMTRNWWCDVYGGGTVVTVNAASGA
